{"source": "patent US20120283184A1", "about": "(published 2012)", "binders": {"B1": {"name": "3A2 PR3 (designed binder)", "chain": "EVVAATPTSLLISWRHPHFPTRYYRITYGETGGNSPVQEFTVPLQPPTATISGLKPGVDYTITVYAVTWSQNNRELFTPISINYRT"}, "B2": {"name": "3′E3 PR4 (designed binder)", "chain": "B1 chain with W69M, S70A, N72Y, N73G, F77L"}, "B3": {"name": "3′H8 PR4 (designed binder)", "chain": "B1 chain with W69V, S70G, Q71H, N73D, F77I"}, "B4": {"name": "3′B12 PR4 (designed binder)", "chain": "B1 chain with W69V, S70A, Q71H, N72E, F77L"}, "B5": {"name": "3′D8 PR4 (designed binder)", "chain": "B1 chain with W69A, S70G, Q71P, N73D, R74H, E75Q"}, "B6": {"name": "3B5 PR3 (designed binder)", "chain": "B1 chain with W69F, S70G, N73G, R74H, E75A, F77L"}, "B7": {"name": "3′G7 PR4 (designed binder)", "chain": "B1 chain with W69E, S70G, N73D, R74Q, E75L, T78I"}, "B8": {"name": "3′E9 PR4 (designed binder)", "chain": "B1 chain with W69V, S70E, N72D, N73G, R74H, E75V, F77Y, T78I"}, "B9": {"name": "3′F2 PR4 (designed binder)", "chain": "B1 chain with W69L, S70G, Q71K, N73D, R74H, F77L"}, "B10": {"name": "3′C8 PR4 (designed binder)", "chain": "B1 chain with W69E, S70G, Q71L, N73D, R74H, F77M, T78I"}, "B11": {"name": "3′H3 PR4 (designed binder)", "chain": "B1 chain with W69L, S70G, Q71L, N73D, F77M"}, "B12": {"name": "3′F9 PR4 (designed binder)", "chain": "B1 chain with W69L, S70G, Q71P, N73D, F77M"}, "B13": {"name": "3′B8 PR4 (designed binder)", "chain": "B1 chain with W69L, S70G, Q71Y, N72H, N73D, R74H, E75A"}, "B14": {"name": "3C3 PR3 (designed binder)", "chain": "B1 chain with W69M, S70E, N73G, R74H"}, "B15": {"name": "3′G1 PR4 (designed binder)", "chain": "B1 chain with W69L, S70A, Q71L, N73G, R74H"}, "B16": {"name": "3′F6 PR4 (designed binder)", "chain": "B1 chain with W69I, S70E, N72S, N73G, R74L, E75Q, F77M"}, "B17": {"name": "3A3 PR3 (designed binder)", "chain": "B1 chain with W69L, S70A, Q71Y, N73G, L76I, F77I"}, "B18": {"name": "3D12 PR3 (designed binder)", "chain": "B1 chain with W69L, S70G, N73D, E75Q, F77L, T78V"}, "B19": {"name": "3′A6 PR4 (designed binder)", "chain": "B1 chain with W69L, S70A, N73G, R74H, F77L"}, "B20": {"name": "3′B11 PR4 (designed binder)", "chain": "B1 chain with W69E, S70T, Q71W, N73D, R74H, L76I, F77R"}, "B21": {"name": "3C7 PR3 (designed binder)", "chain": "B1 chain with W69R, S70G, Q71L, N73D, R74G, F77L"}, "B22": {"name": "3′G3 PR4 (designed binder)", "chain": "B1 chain with W69F, S70D, N72S, N73D, R74H, F77L"}, "B23": {"name": "3′A7 PR4 (designed binder)", "chain": "B1 chain with W69L, Q71D, N72S, N73G, R74H, E75A"}, "B24": {"name": "3B4 PR3 (designed binder)", "chain": "B1 chain with W69V, S70G, N73E, R74H, F77L"}, "B25": {"name": "3′D9 PR4 (designed binder)", "chain": "B1 chain with W69G, S70Y, Q71Y, N73D, F77L"}, "B26": {"name": "3′G2 PR4 (designed binder)", "chain": "B1 chain with W69L, S70A, N73G, R74H, F77I"}, "B27": {"name": "3′D3 PR4 (designed binder)", "chain": "B1 chain with W69P, S70G, Q71P, N72G, N73D, F77I"}, "B28": {"name": "3′E10 PR4 (designed binder)", "chain": "B1 chain with W69A, S70G, Q71H, N72K, N73D, R74Q, F77L"}, "B29": {"name": "3F8 PR3 (designed binder)", "chain": "B1 chain with W69V, S70A, N73G, R74H, F77K"}, "B30": {"name": "3′E1 PR4 (designed binder)", "chain": "B1 chain with W69V, S70A, Q71P, N73G, R74H"}, "B31": {"name": "3′B10 PR4 (designed binder)", "chain": "B1 chain with W69L, S70A, N72T, N73G, F77L"}, "B32": {"name": "3′B4 PR4 (designed binder)", "chain": "B1 chain with W69V, S70A, Q71W, N73G, R74H, F77M"}, "B33": {"name": "3′H1 PR4 (designed binder)", "chain": "B1 chain with W69F, S70A, N73D, R74H, E75Q"}, "B34": {"name": "3′C3 PR4 (designed binder)", "chain": "B1 chain with W69M, S70A, N73G, R74H, E75A"}, "B35": {"name": "3′B2 PR4 (designed binder)", "chain": "B1 chain with W69V, S70G, Q71R, N73D, F77L"}, "B36": {"name": "3′F3 PR4 (designed binder)", "chain": "B1 chain with W69L, S70G, Q71H, N73D, F77L"}, "B37": {"name": "3′G10 PR4 (designed binder)", "chain": "B1 chain with W69L, S70T, Q71H, N73D, R74H, F77L"}, "B38": {"name": "3′C5 PR4 (designed binder)", "chain": "B1 chain with W69D, S70A, Q71M, N72Y, N73G, F77M"}, "B39": {"name": "3G2 PR3 (designed binder)", "chain": "B1 chain with W69F, S70G, Q71P, N72S, N73D, R74H, E75V, F77L"}, "B40": {"name": "3′B1 PR4 (designed binder)", "chain": "B1 chain with W69E, S70A, Q71R, N73G, F77L"}, "B41": {"name": "3′D2 PR4 (designed binder)", "chain": "B1 chain with W69V, S70E, Q71S, N73G, R74H, E75A, T78V"}, "B42": {"name": "3′A8 PR4 (designed binder)", "chain": "B1 chain with W69V, S70A, Q71W, N72D, N73D, R74H, F77L"}, "B43": {"name": "3′C12 PR4 (designed binder)", "chain": "B1 chain with W69I, S70G, Q71P, R74H, F77L"}, "B44": {"name": "3′E5 PR4 (designed binder)", "chain": "B1 chain with W69V, S70A, Q71W, N72D, N73G"}, "B45": {"name": "3C9 PR3 (designed binder)", "chain": "B1 chain with W69L, S70V, Q71R, N73D, R74H, F77L"}, "B46": {"name": "3F10 PR3 (designed binder)", "chain": "B1 chain with W69L, S70A, N72D, N73D, R74H, F77L"}, "B47": {"name": "3′F1 PR4 (designed binder)", "chain": "B1 chain with W69V, S70A, N72D, N73G, R74H, E75F, F77Y"}, "B48": {"name": "3′A9 PR4 (designed binder)", "chain": "B1 chain with W69L, S70A, Q71H, N73D, F77L"}, "B49": {"name": "3′F12 PR4 (designed binder)", "chain": "B1 chain with W69L, N72T, N73D, R74H, F77L"}, "B50": {"name": "3′E11 PR4 (designed binder)", "chain": "B1 chain with W69V, S70G, Q71P, N72H, N73D, F77L"}}, "note": "Positions count from the first letter of the chain named.", "data": [{"target": "T1, human vascular endothelial growth factor receptor-2 Fc chimera (KDR-Fc) (human, UniProt P35968 20-764)", "T1 construct": "range 1-764; also called human VEGFR-2; not shown: human IgG1 Fc", "T1 sequence (P35968 20-764 limits assumed, stated change not applied, form in doubt)": "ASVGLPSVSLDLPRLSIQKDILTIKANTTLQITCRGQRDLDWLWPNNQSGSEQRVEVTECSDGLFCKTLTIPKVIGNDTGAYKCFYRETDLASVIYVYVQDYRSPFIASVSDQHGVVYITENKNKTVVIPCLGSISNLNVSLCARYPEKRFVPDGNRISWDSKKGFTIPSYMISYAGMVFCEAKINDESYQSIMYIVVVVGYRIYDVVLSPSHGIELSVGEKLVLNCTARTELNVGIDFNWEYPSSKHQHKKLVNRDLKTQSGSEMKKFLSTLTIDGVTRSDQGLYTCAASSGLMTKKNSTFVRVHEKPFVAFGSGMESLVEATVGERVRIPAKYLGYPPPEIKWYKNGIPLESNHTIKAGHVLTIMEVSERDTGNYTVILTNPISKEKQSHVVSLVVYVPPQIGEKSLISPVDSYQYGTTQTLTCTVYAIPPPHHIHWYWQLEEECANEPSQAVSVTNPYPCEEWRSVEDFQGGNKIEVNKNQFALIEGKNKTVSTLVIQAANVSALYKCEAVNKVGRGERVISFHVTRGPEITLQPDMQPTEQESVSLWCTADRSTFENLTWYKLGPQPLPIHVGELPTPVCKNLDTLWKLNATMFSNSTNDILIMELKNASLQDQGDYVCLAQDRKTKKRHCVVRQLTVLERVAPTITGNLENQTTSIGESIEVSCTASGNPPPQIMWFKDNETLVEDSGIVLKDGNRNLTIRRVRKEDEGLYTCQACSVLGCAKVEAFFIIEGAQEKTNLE", "assay": "radioactive equilibrium binding, 1 nM KDR-Fc, % of input", "experimental": "To prepare ³⁵S-labeled binding proteins for analysis, mRNA was prepared as described above for RNA-protein fusion production but the linker ligation step was omitted. The mRNA was expressed using rabbit reticulocyte lysate translation kit (Ambion) in the presence of ³⁵S-labeled Met at 30° C. for 1 hour. Expressed protein was purified on M2-agarose Flag beads (Sigma) as described above. This procedure produced the encoded protein without the nucleic acid tail. In a direct binding assay, VEGF-R2-Fc fusions in concentrations ranging from 0 to 200 nM were added to a constant concentration of the purified protein (0.2 or 0.5 nM) and incubated at 30° C. for 1 hour in buffer B. The receptor-binder complexes were captured using Protein A magnetic beads for another 10 minutes at room temperature using a Kingfisher™ The beads were washed with six reaction volumes of buffer B. The protein was eluted from the beads with 100 μL of 0.1 M KOH. 50 μL of the reaction mixture and elution were dried onto a LumaPlate-96 (Packard) and the amount of ³⁵S on the plate was measured using a TopCount NXT instrument (Packard). The amount of fibronectin-based scaffold protein bound to the target was estimated as a percent of radioactivity eluted from Protein A magnetic beads compare to radioactivity in the reaction mixture. Nonspecific binding of fibronectin-based scaffold proteins to the beads was determined by measuring binding in the absence of KDR-Fc and represented less than 1-2% of the input. Specific binding was obtained through subtraction of nonspecific binding from total binding. Data was analyzed using the GraphPad Prizm software (GraphPad Software, Inc, San Diego, Calif.), fitted using a one site, non-linear binding equation.", "units": {"Binding to 1 nM KDR, %": "%"}, "values": [{"binder": "B1", "Binding to 1 nM KDR, %": 23}, {"binder": "B2", "Binding to 1 nM KDR, %": 41}, {"binder": "B3", "Binding to 1 nM KDR, %": 20}, {"binder": "B4", "Binding to 1 nM KDR, %": 28}, {"binder": "B5", "Binding to 1 nM KDR, %": 27}, {"binder": "B6", "Binding to 1 nM KDR, %": 20}, {"binder": "B7", "Binding to 1 nM KDR, %": 19}, {"binder": "B8", "Binding to 1 nM KDR, %": 44}, {"binder": "B9", "Binding to 1 nM KDR, %": 29}, {"binder": "B10", "Binding to 1 nM KDR, %": 19}, {"binder": "B11", "Binding to 1 nM KDR, %": 36}, {"binder": "B12", "Binding to 1 nM KDR, %": 18}, {"binder": "B13", "Binding to 1 nM KDR, %": 14}, {"binder": "B14", "Binding to 1 nM KDR, %": 17}, {"binder": "B15", "Binding to 1 nM KDR, %": 19}, {"binder": "B16", "Binding to 1 nM KDR, %": 24}, {"binder": "B17", "Binding to 1 nM KDR, %": 23}, {"binder": "B18", "Binding to 1 nM KDR, %": 24}, {"binder": "B19", "Binding to 1 nM KDR, %": 19}, {"binder": "B20", "Binding to 1 nM KDR, %": 23}, {"binder": "B21", "Binding to 1 nM KDR, %": 20}, {"binder": "B22", "Binding to 1 nM KDR, %": 31}, {"binder": "B23", "Binding to 1 nM KDR, %": 34}, {"binder": "B24", "Binding to 1 nM KDR, %": 17}, {"binder": "B25", "Binding to 1 nM KDR, %": 30}, {"binder": "B26", "Binding to 1 nM KDR, %": 15}, {"binder": "B27", "Binding to 1 nM KDR, %": 42}, {"binder": "B28", "Binding to 1 nM KDR, %": 21}, {"binder": "B29", "Binding to 1 nM KDR, %": 17}, {"binder": "B30", "Binding to 1 nM KDR, %": 32}, {"binder": "B31", "Binding to 1 nM KDR, %": 21}, {"binder": "B32", "Binding to 1 nM KDR, %": 38}, {"binder": "B33", "Binding to 1 nM KDR, %": 22}, {"binder": "B34", "Binding to 1 nM KDR, %": 32}, {"binder": "B35", "Binding to 1 nM KDR, %": 29}, {"binder": "B36", "Binding to 1 nM KDR, %": 37}, {"binder": "B37", "Binding to 1 nM KDR, %": 30}, {"binder": "B38", "Binding to 1 nM KDR, %": 27}, {"binder": "B39", "Binding to 1 nM KDR, %": 20}, {"binder": "B40", "Binding to 1 nM KDR, %": 25}, {"binder": "B41", "Binding to 1 nM KDR, %": 19}, {"binder": "B42", "Binding to 1 nM KDR, %": 27}, {"binder": "B43", "Binding to 1 nM KDR, %": 33}, {"binder": "B44", "Binding to 1 nM KDR, %": 23}, {"binder": "B45", "Binding to 1 nM KDR, %": 16}, {"binder": "B46", "Binding to 1 nM KDR, %": 16}, {"binder": "B47", "Binding to 1 nM KDR, %": 31}, {"binder": "B48", "Binding to 1 nM KDR, %": 25}, {"binder": "B49", "Binding to 1 nM KDR, %": 17}, {"binder": "B50", "Binding to 1 nM KDR, %": 17}]}]}
